# From patent US6022951A (priority 1996, dated 2000)
# Test: stability against denaturation by guanidine hydrochloride (remaining biotin-binding ability)
# Type: physicochemical
# Method: Biotin-binding ability was used as an estimate of the structural stability.
# Structural stability of core streptavidins against denaturation was estimated from the biotin-binding ability after incubation in guanidine hydrochloride solutions at pH 7.4 and pH 1.5. […] Then, 1.4 μl (680 pmol) of D-[carbonyl-^14 C]biotin was added to each solution. The mixture was incubated at 22° C. for 10 minutes and streptavidin-biotin complexes were separated from free, unbound biotin using PD-10 columns which had been equilibrated with the same guanidine hydrochloride solution (R. -D. Wei, Methods Enzymol. 18A:424-27, 1980).
# All of the three core streptavidins bound more than 0.96 molecules of biotin per subunit at pH 7.4 without guanidine hydrochloride and the biotin-binding ability remaining in guanidine hydrochloride is indicated in percent.
# [1] = 4 M guanidine hydrochloride, pH 1.5
# [2] = 6 M guanidine hydrochloride, pH 7.4
substance,measurement,setting,value
"full-length streptavidin: full length streptavidin, monomer of 159 amino acids",biotin bound per subunit in guanidine hydrochloride,[1],about 0.826 molecules biotin per subunit
same,reduction (loss) of biotin-binding ability,[1],~15%
same,biotin bound per subunit in guanidine hydrochloride,[2],about 0.768 molecules biotin per subunit
same,reduction in biotin-binding ability,[2],about 20%
